Reference: patent US20030171273, “Novel transcription factor, BP1” (published 2003)

Molecular target: beta-galactosidase (UniProt P00722 P00722:2-1024)
Assay: EMSA; data not shown; negative control protein
Details: tags: pure protein, chain copies: 4, label: 32P
Procedure: 11:1475-1489). Protein extracts from lysogens were prepared as described (see, for example, Cowell, I. G. and H. C. Hurst. 199. Cloning transcription factors from a cDNA expression library, p.120-122. In D. S. Latchman (ed.), Transcription factors: a practical approach. IRL Press, New York). Competitors were pre-incubated with nuclear extract for 20 minutes prior to addition of the probe. Oligonucleotides sequences of probes and competitors for EMSA analyses are shown below.
To verify that the cDNA encoded a protein with the expected binding specificities of BP1, namely, the ability to bind to Silencers I and II upstream of the β-globin gene and to a sequence −530 bp upstream of the δ-globin gene (see, for example, Berg, P. E., S. Abhyankar, and M. Chase. 1994. The high mobility group protein HMG-I(Y) binds to a silencer DNA sequence upstream of the human β-globin gene. Blood 84 Suppl 1:262a), an EMSA competition assay was performed. The putative BP1 protein, fused to β-galactosidase, was expressed from a λ lysogen, as described above. This fusion protein was partially purified and incubated with the Silencer II probe used for screening the library, resulting in a single shifted band, indicated by the arrow (FIG. 2, lane 1). The band at the top marks the position of the wells, and the band at the bottom contains the unshifted probe. […]

beta-galactosidase, sequence (P00722 2-1024, one chain of several): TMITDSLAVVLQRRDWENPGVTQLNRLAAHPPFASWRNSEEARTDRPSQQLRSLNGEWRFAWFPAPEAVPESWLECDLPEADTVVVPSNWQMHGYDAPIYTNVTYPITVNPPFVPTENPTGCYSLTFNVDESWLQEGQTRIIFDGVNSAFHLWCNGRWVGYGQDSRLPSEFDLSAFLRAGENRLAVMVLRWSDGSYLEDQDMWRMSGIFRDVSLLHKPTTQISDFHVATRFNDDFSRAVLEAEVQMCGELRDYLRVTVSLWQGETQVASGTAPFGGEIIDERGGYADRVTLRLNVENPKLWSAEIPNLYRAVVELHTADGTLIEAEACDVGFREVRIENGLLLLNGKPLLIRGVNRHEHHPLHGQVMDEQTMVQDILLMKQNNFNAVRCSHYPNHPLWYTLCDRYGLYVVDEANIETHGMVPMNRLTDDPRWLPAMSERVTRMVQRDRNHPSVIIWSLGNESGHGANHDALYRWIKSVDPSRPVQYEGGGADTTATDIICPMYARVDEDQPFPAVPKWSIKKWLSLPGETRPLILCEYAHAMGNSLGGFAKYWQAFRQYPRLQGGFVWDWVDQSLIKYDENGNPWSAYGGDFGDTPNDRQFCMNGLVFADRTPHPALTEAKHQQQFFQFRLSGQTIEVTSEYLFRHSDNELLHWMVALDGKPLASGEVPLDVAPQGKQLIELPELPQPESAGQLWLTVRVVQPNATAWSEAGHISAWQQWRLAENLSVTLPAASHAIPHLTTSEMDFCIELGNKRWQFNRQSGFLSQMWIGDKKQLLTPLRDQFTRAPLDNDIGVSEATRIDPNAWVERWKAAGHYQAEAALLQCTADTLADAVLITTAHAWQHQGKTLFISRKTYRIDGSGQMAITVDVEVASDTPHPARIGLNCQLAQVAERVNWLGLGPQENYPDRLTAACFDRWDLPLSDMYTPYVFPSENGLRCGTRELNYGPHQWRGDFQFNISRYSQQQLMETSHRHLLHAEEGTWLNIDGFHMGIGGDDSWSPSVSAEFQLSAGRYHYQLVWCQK

B1: -300 beta (Silencer II) (dsDNA)
DNA 1: TTCTTATTTGTGTAATAAGAAAATTGGGAAAACGATCTTCAATATGCTTACCAAGCTG
DNA 2: CAGCTTGGTAAGCATATTGAAGATCGTTTTCCCAATTTTCTTATTACACAAATAAGAA
binding result: no binding
